From a protein production outcome set (Wang et al. 2014)

Assay: label from the status in PepcDB records

MGCVRDLTQRGMRQGAKPVRYFGERTDVSDLLAHTLQTVADILGPHGPATKAAEHSYTPNDYSIHFFLQLAVILLACRVTGWFGKKFLAQPQVVGEMIAGVVLGPSLLGLLFPDFQLSLFPKETRNILYVGAQLGVGLYMFLVGASFQAGHFKTKARSAMSVSFAGIAAPFAIAVIITPFLLKVPGLFAPTITPGAATLFMGACIALTAFPMLARIINERGLQKTSLGTLSLTAGAFDDAVSWCVLAVVLAMFGGGPGVAVLAIGGGLLWVLFVLTLGPKILAPLGRMVEREGELSAHALALVILAFCVSAFLMDAVGIHAIFGGFIMGVVMPRGLLTQELKKKVEPLVVVLLLPMFFTYSGLNTRLDMVNSLDLLLIALGILACSILAKWGACYVAARATGEDHATAMGIGALMNSRGLMELIIINIGLQKGIIGPTLFAMLVLMAIVTTMMASPLFEIVYGKKARERGELDAVPDAKRA
protein production: failed

MHTPTAVLRPADFLAPIVAALISVLVNYGGTFVLVFQAAELAGLSAAQTTSWVWAVSIGVGVTGIALSWRYREPIITAWSTPGVAFLATVMPFTPYGEVIGAYLAAALGFVVLGLSGAFEKLVRMIPAGIAAGLLAGILLQFGINAFGGASADPLLVIALLVSYALLKRYTSRFAVVGILVIGLGLLAAQQRVDFAALHLSLAAPVFEMPRFSLHAMLGVALPLFVITLTGQYMPGMLVLRNDGFKTSANPILVATGLGSLVMAPFGAHTFNVAAITAAICTGRDAHEDPRKRYIAGLACGVFYILVGLFGVTLATLFMVLPKTFITTLAGLALLGTIGGSLASAMADARTRETALITFLATAANVTLLGVGGAFWGLVAGLAAHGLIHFRQPEPAAARPALLSPTSQDTR
protein production: failed

MIDIHSHIVFDVDDGPKTLEESLSLIEESYRQGVRIIVSTSHRRKGMFETPEDIIFKNFSIVKHEAEKRFEHLQILYGGELYYTSDMLEKLKLKQIPTLNNTKFALIEFSMQTSWKDIHTALSNVLMLGITPVVAHIERYNALENQKERVKEIINMGCYTQINSSHILKQKLFNDKHKRFKKRARYFLEENLVHFVASDMHNLDVRPPFLAEAYKIICRDFGKERANQLFIENAQSILKNHYI
protein production: failed

MIPPLQLSPLALVALLSLAAWAVVLLTRRRFWRCDQRLGQNTMAPGAAPAVVAVIPARDEAHTIGQTVRSLLNQSYPGRLVVVVVDDSSSDGTADAARAGAASVYDGPSRLIVVPGKPLEAGWSGKLWAVHQGLEVAAQAVPEARYVLLTDADIEHIPGNIARLVGKCERDGLVMASLMVKLRCESAWEHLLIPAFIFFFQKLYPFPLVNDPDRRVAGAAGGCILARRETLDAIGGVAAVRGALIDDCALAALLKEKGPIWLGLAGRTRSLRPNDELGDVWRMVARTAYVQLHHSPLRLIGAVIGMTLLYLVPPVSLIVGILSADFPAAVAGLVGWIGLAIIYRPTLHLYRRPPMAGLALPLAALLYTLMTIDSARRHYVGRGGEWKGRTYSGDASAGADPGPRSPAELAAHVEAITKASGTSFYGAMRILPRERRLAMYAIYAFCRVVDDIADGTAPEAEKRAELARWRDEIEALYARGGKGPEHPVARALDGPIRRFALPREDFLAVIEGMELDAGPRVRIRDITELEQYCDWVACAVGRLSNRIFGADPALSDDVARHTGLALQLTNILRDVVEDAERDRLYLPLSRLRAHGLKTTKDIDAVLVHPATAKVCAELASKAAAEFAEADRAQAACDRKTMRPAIIMKEVYRRIHAALMVRGWARLGEPVKVSRLTKLGIALRHGWL
protein production: failed

MEAPTVLDVGCGDGARTLANLPPRSVGLDFSRAGLDLAAETVPDSRLVQGDMGSLPVTTDSVDAITAYHAVFHVQRDQHPEVYREFARVLRPGGTVLMTLPSGQFETVRRGWMGGSMFFSAPGRRATLDQLADAGFTETETVTATDPLGSDSEFVFATLADALEHHHHHH
protein production: failed

SLPMQHVHTSPVRDYRNRCARREGETVFQVVVEETDLRVTALAELATPMAAYVGELRAQLKVWMEFQPAFRHSLVPVEVPEGAPEVVRRMAHGARLVGVGPFAAVAGTIAQMVAERFVDVSPELIVENGGDLYLYSERDRVVGILPDPASGDMVGILVRAGTAPVSLCGSSARIGHSLSLGDGDLAVVRARDASLADAAATAFGNMLRRADDVAAVTERAAQLASIGIEGVYAQCGGRIGIWGDMELAVA
protein production: not failed

MKDMKMQSSPETMMTRIPTPDPHSTGVREDAMDSVCKPWKLYENPYYCSSQSQQHQHQRKAFIWDLNFIKVFMESELGKAQDEIKELKAELDYERKARRRAELMIKKLAKDVEEERMAREAEEMQNKRLFKELSSEKSEMVRMKRDLEEERQMHRLAEVLREERVQMKLMDARLFLEEKLSELEEANRQGERERNRMMKPKILERACSSPARRRCENPQIKRGINPFPRVMRAIRSKSEKWGSKLECQKVQLKILLRQKTTPRCTPLLSSPPP
protein production: failed

MFIKGVILSSYGVNGYARVKSISNNFCDFINLKNNKVLLKKSNSSSVEVKVVDVNIKGNSLFLKFEEIDTPEAVRPLIGFELWVDDSLASSLKEGEYYLGKLIGYAIVNNNKKLGEVVAFFEYLNSVFLEVRVGIKFFFIPFLSIYIGDINTQEKTIELKVLDLLKLEHHHHHH
protein production: failed

MLLTATLLGLIAALGILDGRLLGVSMIDRPLVMCALTGLVCGNLHEGILIGATLELIFLGNVAIGAAVPPDVVTGSVLATAFSIMSGRGPEAALTIAIPISMLAQTLGVLVRVVNARFGHMADRYAAQGNTRMVAVMHLGGPTLLYFLSGFLPVFFAILLGSAAVTWFLDAIPAFITNGLVVASKILPALGFALLISMMLSSKLMPYLGLGFLIAAYTKLDIIAIALFAVVLAFIISQFLNTSQQEG
protein production: failed

MISGISGILCVVLVSKGKISNYFFGLIFAYTYFYVAWGSNFLGEMNTVLYVYLPSQFIGYFMWKANMQNSDGGESVIAKALTVKGWMTLIVVTTVGTLLFVQALQAAGGSSTGLDGLTTIITVAAQILMILPLS
protein production: failed

MSLKIAKVEALSVAMGDGTGWMPTSAFVRITAEDGTVGWGEASPMLGGIASLGVVARDIAPFLEGQEVLDHAVLLDRMMHRLVKLGPEGIATAALAACDIALWDLKGKLLGQPIYKLLGGAWRTRLPCYSSIGGNAARSVDEVVREVARRVEAEQPAAVKIRWDGDRTRCDVDIPGDIAKARAVRELLGPDAVIGFDANNGYSVGGAIRVGRALEDLGYSWFEEPVQHYHVGAMGEVAQRLDITVSAGEQTYTLQALKDLILSGVRMVQPDIVKMGGITGMMQCAALAHAHGVEFVPHQTQPGVGHFANIHVLSTLMHMTKPVELADRWDRGRPVFRNPAEPVDGHFALGDAPGLGIVVDEDELASRATEITVGRDQRPPAGGQYEGHHHHHH
protein production: not failed

MKALMVFMTTAENGSFSDAARKLGVSPAAISQSIARLEQELEVRLFNRTTRQLTLTEDGRRFYAQCRGPVNNLDSAINQLKASRDEPAGHLRVSMPNSFGRRFILPIMGEFCERYPKVRVFFGLDDHFSDLIEDGYDVGVRTGMMPDSRMVARNLAQMPLYVVASPEYWDQHGRPSSPEELSGYDCINFQFPTSGRLFKWEFDRKGERIPLEVNGTYTLNDMEAVAELARLGMGVAQLPGHEVVHLIRSGELEPVLTDMVSLERSIYICFPHRDHIAPRTRVFVDFVVEKLADHPDIMADLPGLDLSAKRSALQQSVGVL
protein production: failed

MGSQGGIVSIDAKIDASVMIGKDAVVFPDANIAERACIAEKVCIGNAVRIGKHAMIDHGASIGDRSNIGERSRIYQDSFIGENAVIAARACIGEKVYIGNFVSLAKDSIIDDGVNIGERSSIGERTRIRQGSFIRKGCVIRQRSVIAKRAYIDEGVYIGNVVRILEHHHHHH
protein production: failed

MSDPVSYTRKDSIAVISMDDGKVNALGPAMQQALNAAIDNADRDDVGALVITGNGRVFSGGFDLKILTSGEVQPAIDMLRGGFELAYRLLSYPKPVVMACTGHAIAMGAFLLSCGDHRVAAHAYNIQANEVAIGMTIPYAALEIMKLRLTRSAYQQATGLAKTFFGETALAAGFIDEIALPEVVVSRAEEAAREFAGLNQHAHAATKLRSRADALTAIRAGIDGIAAEFGL
protein production: not failed

MKKWIKIVLYSLLAILIVGSITFLSWSQFTYKPTKEALSLVDDKKDEDYIVFGEKDAKIGVIFYQGAKVEAEAYSYLGEALAKDGHFVVMPKLPLNLALFGINEVDSVIEQYPEVQKWYVAGHSMGGAMISRYAFQHEEKVDGIIFLGSYPADDFSTKSIPMLSIYGEVDALATVEKIENNKKFMSKNTTMHMIKGGNHAHFGMYGEQKGDNASLITAKAQRDETVKVIEQWLLEQ
protein production: failed

MGLLVILNIVMRIPSIPHEKGYDSFFIHSLANSVANFGVAQWWINWMSVFGLYPYSYASAVPFTLSGMSQLTGIRMEIVILLFCVLLGLFSIFASYSLATVLYDNFLHRFLFAVIFSSSAGTLNLTTWEITTRAQILVFFPFLLYLLFQIIKFKTKFVMLFIVTALLLLATHHFVYMGLFYSGLIFIVALIYKLNRNQPFQIQKTQLRNINLNYMYISSVFFLIILIFLYGSKWGLITSGSRYAWIIDILMITGRNVGLTLLLSIGALIYYIFKKDKLLDEWAILICLIPTLIFSFNQTYGYLTTYLFVTLLGSAGLFNVIKNQKQNRKVVAATVVILIILNITFSTFFVHYRLGIGGGNSEWYMSEETYNTGEWIKENISWDKKAVSNSMQGNRLFASYGGQPVLYRDDISNYMNGFVTLNESKIEKKSPFSKSFYLDNPYVLKSGTTTSGLYSWISQYPITSENSQNFINGNNISYFYDDSLNYNRLFGSLPQSKNSIYNSGRMRIWEN
protein production: failed

MAGYKPVAIQTYPVLGEKITQDTLYWNNYKTPVQIKEFGAVSKVDFSPQLPYNYAVTASSRIHIYGRYSQEPVKTFSRFKDTAYCATFRQDGQLLVAGSEDGVVQLFDINGRAPLRQFEGHTKAVHTVDFTADNYHVVSGADDYTVKLWDIPNSKEILTFKEHSDYVRCGCASKLNPDLFVTGSYDHTVKIFDARTNKNVLCVEHGQPVESVLLFPSGGLLVSAGGRYVKVWDMLKGGQLLVSLKNHHKTVTCLCLSSSGQRLLSGSLDRKVKVYSTTSYKVVHSFDYAASILSLALSHQDETIVVGMTNGILSVKHRKSEAKKTSLPRRRRPAYRTFIKGKNYLKQRDDIMVSRPAKKHLEGYDKDLKSFRVSQALDRVLEPKCVIRTPEVTVSIIKELTRRGVLANALAGRDEKEVTRVLNFLIRNLSQPRFAPVLINAAEIIIDIYLPVIGQSSVVDKKFIVLQELVEKEIDYQRELLETLGMMDMLFATMTRNDSDPVPEHVPAELPEEKTESPTQPSDTDKNS
protein production: failed

ERFQFAGSGGHQLAAALDLPDAQPLAYALFAHCFTCSKDNLAARRISAAMAARGIAVLRFDFTGLGASEGEFENATFSSNVADLVLAADHLRATHRAPTLLIGHSLGGAAVLAAAAQIPEAKAIATIAAPSDPSHVTGLFADDIETIRTEGRVNVSLAGRPFTIKREFLDDIAEHNLMAEIGKLHKALLILHAPTDDTVGIDNATKIFLAAKHPKSFVSLDHADHLLSDRRDANYAAGVIAAWAQRYIDAEPPAPTAGAPEVPR
protein production: failed

MDITEKLRLITRNAEEVVTEEELRQLIETKEKPRAYVGYEPSGEIHLGHMMTVQKLMDLQEAGFEIIVLLADIHAYLNEKGTFEEIAEVADYNKKVFIALGLDESRAKFVLGSEYQLSRDYVLDVLKMARITTLNRARRSMDEVSRRKEDPMVSQMIYPLMQALDIAHLGVDLAVGGIDQRKIHMLARENLPRLGYSSPVCLHTPILVGLDGQKMSSSKGNYISVRDPPEEVERKIRKAYCPAGVVEENPILDIAKYHILPRFGKIVVERDAKFGGDVEYASFEELAEDFKSGQLHPLDLKIAVAKYLNMLLEDARKRLGVSV
protein production: not failed

MELVFDKDGLSAYLEEVFPQIQGEFSIDALAKGEITMRLNVQERHLRPGGTVSGPSMFALADVSVYALVLAHLGREALAVTTNASLDFMRKPESGRDLLGQARLLKLGRTLAVGDILLFSEGMEAPVARSTMTYSIPPKR
protein production: not failed
